Experimental data taken from patent publication US20250034266A1 (ZAI LAB SHANGHAI, published 2025).
Positions count from the first letter of the chain named. Numbers in names are those of the source.

B1: Hu149-3 (antibody, V domains shown)
VH: EVQLVESGGGLVQPGGSLKLSCAASGFTFNTYAMNWVRQASGKGLEWVGRIRSKSNFYATAYAASVKGRFTISRDDSKNTAYLQMNSLKTEDTAVYYCVRGRDYGSSYAMDYWGQGTLVTVSS
VL: DIVMTQSPLSLPVTPGEPASISCRSSKSLLHSNANTYLYWFLQKPGQSPQLLIYRMSNLASGVPDRFSGSGSGTDFTLKISRVEAEDVGVYYCMQHLEYPLTFGGGTKVELK
notes: humanized IgG
B2: Hu149-8 (antibody, V domains shown)
VH: B1 VH with A61Y, V99T
VL: B1 VL with F41Y
notes: humanized IgG
B3: Hu149-5 (antibody, V domains shown)
VH: B1 VH with A61Y
VL: B1 VL with F41Y
notes: humanized IgG
B4: Hu149-6 (antibody, V domains shown)
VH: B1 VH with N35H, A61Y
VL: B1 VL with F41Y
notes: humanized IgG
B5: Hu149-7 (antibody, V domains shown)
VH: B1 VH
VL: B1 VL with F41Y
notes: humanized IgG
B6: Hu348-1 (antibody, V domains shown)
VH: EVQLVESGGGLVQPGGSLKLSCATSGFSFSNYRMHWLRQASGKGLEWVGVITVKSDNYGANYAASVKGRFTISRDDSKSSVYLQMNSLKTEDTAVYYCSSLGRVAYWGQGTLVTVSS
VL: DIQMTQSPSSVSASVGDRVTITCKASQNVDTNVVWYQQKPGQSPKALIYSASSRYSGVPDRFSGSGSGTDFTLTISSLQPEDFATYYCQQHNSFPLTFGQGTKLEIK
notes: humanized IgG
B7: Hu348-5 (antibody, V domains shown)
VH: B6 VH with T24A, R33A
VL: B6 VL
notes: humanized IgG
B8: Hu348-3 (antibody, V domains shown)
VH: B6 VH
VL: B6 VL with A46L
notes: humanized IgG
B9: Hu348-9 (antibody, V domains shown)
VH: B6 VH with S99T
VL: B6 VL
notes: humanized IgG
B10: Hu348-7 (antibody, V domains shown)
VH: B6 VH with V50R, A60T, N61A
VL: B6 VL
notes: humanized IgG
B11: Hu348-2 (antibody, V domains shown)
VH: B6 VH
VL: B6 VL with Q42K, S43A
notes: humanized IgG
B12: Hu348-6 (antibody, V domains shown)
VH: B6 VH with L37V
VL: B6 VL
notes: humanized IgG
B13: Hu348-8 (antibody, V domains shown)
VH: B6 VH with S79N, S80T, V81A
VL: B6 VL
notes: humanized IgG
B14: Hu149-11G1x (antibody)
heavy: B1 VH with V99T, D103E
VL: B1 VL
notes: Fc variant of Hu149-11; not shown: Fc variant 'G1x' is not defined in words
B15: Hu149-12G1m (antibody, human IgG1)
heavy: EVQLVESGGGLVQPGGSLKLSCAASGFTFNTYAMNWVRQASGKGLEWVGRIRSKSNFYATAYAASVKGRFTISRDDSKNTAYLQMNSLKTEDTAVYYCTRGKEYGSSYAMDYWGQGTLVTVSSASTKGPSVFPLAPSSKSTSGGTAALGCLVKDYFPEPVTVSWNSGALTSGVHTFPAVLQSSGLYSLSSVVTVPSSSLGTQTYICNVNHKPSNTKVDKKVEPKSCDKTHTCPPCPAPELVGGPSVFLLPPKPKDTLMISRTPEVTCVVVDVSHEDPEVKFNWYVDGVEVHNAKTKPPEEQYNSTLRVVSVLTVLHQDWLNGKEYKCKVSNKALPAPIEKTISKAKGQPREPQVYTLPPSRDELTKNQVSLTCLVKGFYPSDIAVEWESNGQPENNYKTTPLVLDSDGSFFLYSKLTVDKSRWQQGNVFSCSVMHEALHNHYTQKSLSLSPGK
VL: B1 VL
notes: suffix G1m read as for Hu149-11G1m (L235V/F243L/R292P/Y300L/P396L)
B16: Hu149-12G1x (antibody)
heavy: B1 VH with V99T, R102K, D103E
VL: B1 VL
notes: Fc variant of Hu149-12; not shown: Fc variant 'G1x' is not defined in words
B17: Hu149-11G1m (antibody, human IgG1)
heavy: B15 heavy with K102R
VL: B1 VL
B18: 499B1A5 (antibody, V domains shown)
VH: EVQLVESGGGLVQPKGSLKLSCAASGFTFNTYAMNWVRQAPGKGLEWVARIRSKSNNYATYYADSVKDRFTISRDDSQSMLYLQMNNLKTEDTAMYYCVRHGRSGYLYAMDYWGQGTSVTVSS
VL: DIVMTQAAFSNPVTLGTSASISCRSSKSLLHSNGITYLYWYLQKPGQSPQLLIYQMSNLASGVPDRFSSSGSGTDFTLRISRVEAEDVGVYYCAQSLELPLTFGAGTKLELK
notes: Murine hybridoma antibody (supernatant)

molecular target: T1, cynomolgus CCR8 (cynomolgus, UniProt G7NYJ2 1-355); assay: FACS on HEK293-cynomolgus CCR8 cells
T1 construct: whole, on cells
Method: (§1) A total of 5×10⁴ cells for each well were seeded in 96-well plates and washed with FACS buffer (DPBD containing 1.5% FBS) for once. Antibodies were prepared with 3-fold serial dilution ranging from 100 nM to 0.0017 nM in FACS buffer. Cells were incubated with 50 μL of diluted antibodies at 4° C. for 1 hour. […] After primary antibody incubation, cells were washed for 3 times by FACS buffer. Then, cells were stained by Alexa Flu647 labeled anti-human IgG secondary antibody (Jackson ImmunoResearch, #109606170) or Alexa Flu647 labeled anti-mouse IgG secondary antibody (Jackson ImmunoResearch, #115605072) at 1:600 dilution in FACS buffer for 0.5 hour at 4° C. After washed for 3 times, Flow cytometry was performed to measure the binding.
T1 sequence (G7NYJ2 entry or part of it): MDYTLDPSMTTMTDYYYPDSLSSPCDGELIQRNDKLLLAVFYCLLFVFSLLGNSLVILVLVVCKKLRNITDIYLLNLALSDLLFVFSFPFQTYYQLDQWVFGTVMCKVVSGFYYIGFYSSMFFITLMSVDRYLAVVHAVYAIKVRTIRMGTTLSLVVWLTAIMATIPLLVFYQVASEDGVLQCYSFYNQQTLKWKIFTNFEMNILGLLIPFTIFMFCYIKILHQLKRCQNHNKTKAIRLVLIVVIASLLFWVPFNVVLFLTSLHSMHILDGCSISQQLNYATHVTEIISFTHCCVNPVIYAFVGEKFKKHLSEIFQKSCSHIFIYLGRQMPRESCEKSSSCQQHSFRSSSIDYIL

EC50 [nM] | Max MFI [MFI] | Binder
0.205 | 19900 | B1
 | 2420 | B2
 | 414 | B3
 | 443 | B4
 | 488 | B5

molecular target: T1, cynomolgus CCR8; assay: FACS on ExpiCHO-S-cynomolgus CCR8 cells

Max MFI [MFI] | EC50 [nM] | Binder
336 |  | B6
6 |  | B7
350 |  | B8
148 |  | B9
174 |  | B10
296 |  | B11
82 | 31.1 | B12
267 |  | B13

molecular target: T2, human CCR8 (human, UniProt P51685 1-355); assay: FACS on HuT78 cells (endogenous human CCR8)
T2 construct: whole, on cells; also called hCCR8
T2 sequence (P51685 whole entry, the tested form may be a part): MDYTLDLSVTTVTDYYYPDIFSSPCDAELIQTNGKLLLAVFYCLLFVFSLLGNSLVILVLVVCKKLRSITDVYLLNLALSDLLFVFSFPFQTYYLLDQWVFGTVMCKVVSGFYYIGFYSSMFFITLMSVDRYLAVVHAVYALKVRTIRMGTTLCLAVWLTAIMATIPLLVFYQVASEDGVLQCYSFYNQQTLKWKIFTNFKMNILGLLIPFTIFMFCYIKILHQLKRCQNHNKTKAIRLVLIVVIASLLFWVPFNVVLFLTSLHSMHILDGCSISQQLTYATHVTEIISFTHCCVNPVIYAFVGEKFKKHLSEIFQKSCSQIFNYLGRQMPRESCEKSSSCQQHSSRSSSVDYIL

EC50 [nM] | Max MFI [MFI] | Binder
0.427 | 52700 | B14
0.209 | 55600 | B15
0.313 | 52900 | B16
0.384 | 45700 | B17

molecular target: T3, human CCR8 (human, UniProt P51685 1-355); assay: FACS, hybridoma supernatant on CHO-K1-human CCR8 cells
T3 construct: whole, on cells; In the β-arrestin assay CCR8 is fused to the ProLink (PK) tag; also called hCCR8; CHO-K1-human CCR8
Method: (§2) Binding of hybridoma supernatant on CHO-K1-human CCR8 and ExpiCHO-S cynomolgus CCR8 cells. A total of 660 96-well plates were seeded and screened by FACS binding from the hybridoma derived from immunized animals.
(§3) To obtain antibodies cross-reactive to human and cynomolgus CCR8, hybridomas from mice immunized with human and cynomolgus CCR8 DNAs were screened by FACS. Briefly, 50 μL ExpiCHO-S cells transfected with human CCR8 or cynomolgus CCR8 (cell density: 2×10⁶ cells/mL, viability>90%) were incubated with equal volume hybridoma supernatant in 96 well plate (Corning) at 4° C. for 1 hour. […] Finally, the mixture was washed and resuspended with FACS buffer, and subjected to FACS analysis on BD FACS Celesta.
T3 sequence (P51685 whole entry, the tested form may be a part): as above

Binding Ratio (GFP + MFI)/(GFP - MFI) | Binder
34.4 | B18

molecular target: T4, cynomolgus CCR8 (cynomolgus, UniProt G7NYJ2 1-355); assay: FACS, hybridoma supernatant on cynomolgus CCR8 cells
T4 construct: whole, on cells; also called HEK293-Cynomolgus CCR8; ExpiCHO-S cynomolgus CCR8
Method: as §2, §3
T4 sequence (G7NYJ2 entry or part of it): as the sequence (G7NYJ2 entry or part of it) above

Binding Ratio (GFP + MFI)/(GFP - MFI) | Binder
35.1 | B18

molecular target: T2, human CCR8; assay: FACS, competition with CCL1 on CHO-K1-human CCR8 cells

IC50 [nM] | Max Inhibition (%) | Binder
0.247 | 99.3 | B14
0.146 | 99.6 | B15
0.17 | 100 | B16
0.231 | 99.4 | B17

molecular target: T1, cynomolgus CCR8; assay: FACS on HEK293-cynomolgus CCR8 cells; remark: another data set of the same source

EC50 [nM] | Max MFI [MFI] | Binder
0.24 | 4.52e+06 | B14
0.183 | 3.24e+06 | B15
0.15 | 3.65e+06 | B16
0.217 | 4.34e+06 | B17

molecular target: T3, human CCR8; assay: FACS competition, hybridoma supernatant with 4 nM AF647-human CCL1 on human CCR8 cells

Inhibition Rate (%) | Binder
95.1 | B18

molecular target: T2, human CCR8; assay: FACS on CHO-K1-human CCR8 cells

EC50 [nM] | Max MFI [MFI] | Binder
0.115 | 200000 | B14
0.0668 | 183000 | B15
0.0927 | 195000 | B16
0.112 | 193000 | B17

molecular target: T2, human CCR8; assay: FACS on HEK293-human CCR8 cells
Method: as §1

EC50 [nM] | Max MFI [MFI] | Binder
0.193 | 7000 | B1
0.24 | 3830 | B2
15 | 2470 | B3
 | 138 | B4
6.42 | 3110 | B5

molecular target: T2, human CCR8; assay: FACS on HEK293-human CCR8 cells; remark: another data set of the same source

EC50 [nM] | Max MFI [MFI] | Binder
0.122 | 5110 | B6
 | 163 | B7
0.108 | 4090 | B8
0.182 | 4500 | B9
 | 756 | B10
0.119 | 4740 | B11
0.978 | 1980 | B12
0.144 | 4730 | B13

molecular target: T2, human CCR8; assay: FACS, competition with AF647-human CCL1 on CHO-K1-human CCR8 cells

IC50 [nM] | Max Inhibition (%) | Binder
0.23 | 94.1 | B6
 | 1.39 | B7
0.362 | 83.1 | B8
0.333 | 88.2 | B9
 | 25.6 | B10
0.216 | 92.4 | B11
1.84 | 78.3 | B12
0.358 | 88.4 | B13

molecular target: T2, human CCR8; assay: as above; remark: another data set of the same source

IC50 [nM] | Max Inhibition (%) | Binder
0.478 | 99.2 | B1
1.24 | 86.5 | B2
49.6 | 57.3 | B3
2.37 | 1 | B4
37.8 | 59 | B5
